Measured values from patent US20190022241A1 (AbbVie / Abbott, published 2019).
Values belong to the binder of their own block, whether it stands above or below them.

How the values were obtained:
[1] = target: T1, rSEZ6-ECD-His (rat, UniProt Q7TSK2 20-922 (mouse entry)); assay: bio-layer interferometry (ForteBio RED) or surface plasmon resonance (Biacore 2000) on rat SEZ6-His; the table does not say which; column Rat XR (Kd, nM)
T1 construct: the whole entry is named; also called rat recombinant SEZ6-His; rat SEZ6 ECD
T1 chain: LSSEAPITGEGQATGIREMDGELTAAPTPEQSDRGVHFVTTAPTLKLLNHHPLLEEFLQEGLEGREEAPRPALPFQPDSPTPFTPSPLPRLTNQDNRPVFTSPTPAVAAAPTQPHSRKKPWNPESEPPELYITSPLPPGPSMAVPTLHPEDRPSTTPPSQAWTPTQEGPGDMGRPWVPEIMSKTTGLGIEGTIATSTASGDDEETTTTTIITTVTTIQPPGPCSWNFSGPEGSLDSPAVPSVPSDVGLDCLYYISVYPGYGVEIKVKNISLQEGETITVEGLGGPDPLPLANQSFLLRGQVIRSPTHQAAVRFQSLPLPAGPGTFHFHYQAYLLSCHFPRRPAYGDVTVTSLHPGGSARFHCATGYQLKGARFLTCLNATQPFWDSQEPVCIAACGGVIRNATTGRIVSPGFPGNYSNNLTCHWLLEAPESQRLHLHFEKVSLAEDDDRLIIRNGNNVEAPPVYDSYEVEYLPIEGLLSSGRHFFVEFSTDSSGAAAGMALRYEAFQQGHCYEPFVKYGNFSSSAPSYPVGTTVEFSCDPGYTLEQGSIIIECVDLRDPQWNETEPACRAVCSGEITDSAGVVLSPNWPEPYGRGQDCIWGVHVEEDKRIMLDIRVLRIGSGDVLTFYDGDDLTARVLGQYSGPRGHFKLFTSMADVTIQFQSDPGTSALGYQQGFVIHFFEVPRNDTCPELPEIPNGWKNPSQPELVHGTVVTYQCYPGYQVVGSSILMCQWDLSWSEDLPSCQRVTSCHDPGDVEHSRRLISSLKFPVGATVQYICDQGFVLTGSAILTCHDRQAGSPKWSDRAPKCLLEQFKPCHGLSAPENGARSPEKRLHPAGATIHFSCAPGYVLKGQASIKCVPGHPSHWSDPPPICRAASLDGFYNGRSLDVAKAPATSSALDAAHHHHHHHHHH
From the text: (§1) Various methods were used to analyze the binding and immunochemical characteristics of selected SEZ6 modulators generated as set forth above.

[2] = target: T2, human SEZ6L2 ECD-His (human, UniProt Q6UXD5 28-843); assay: mark of Table 5 for antibodies that bind SEZ6L2
T2 construct: whole entry named
T2 sequence (Q6UXD5 other isoform, or with tags, fused parts or gaps): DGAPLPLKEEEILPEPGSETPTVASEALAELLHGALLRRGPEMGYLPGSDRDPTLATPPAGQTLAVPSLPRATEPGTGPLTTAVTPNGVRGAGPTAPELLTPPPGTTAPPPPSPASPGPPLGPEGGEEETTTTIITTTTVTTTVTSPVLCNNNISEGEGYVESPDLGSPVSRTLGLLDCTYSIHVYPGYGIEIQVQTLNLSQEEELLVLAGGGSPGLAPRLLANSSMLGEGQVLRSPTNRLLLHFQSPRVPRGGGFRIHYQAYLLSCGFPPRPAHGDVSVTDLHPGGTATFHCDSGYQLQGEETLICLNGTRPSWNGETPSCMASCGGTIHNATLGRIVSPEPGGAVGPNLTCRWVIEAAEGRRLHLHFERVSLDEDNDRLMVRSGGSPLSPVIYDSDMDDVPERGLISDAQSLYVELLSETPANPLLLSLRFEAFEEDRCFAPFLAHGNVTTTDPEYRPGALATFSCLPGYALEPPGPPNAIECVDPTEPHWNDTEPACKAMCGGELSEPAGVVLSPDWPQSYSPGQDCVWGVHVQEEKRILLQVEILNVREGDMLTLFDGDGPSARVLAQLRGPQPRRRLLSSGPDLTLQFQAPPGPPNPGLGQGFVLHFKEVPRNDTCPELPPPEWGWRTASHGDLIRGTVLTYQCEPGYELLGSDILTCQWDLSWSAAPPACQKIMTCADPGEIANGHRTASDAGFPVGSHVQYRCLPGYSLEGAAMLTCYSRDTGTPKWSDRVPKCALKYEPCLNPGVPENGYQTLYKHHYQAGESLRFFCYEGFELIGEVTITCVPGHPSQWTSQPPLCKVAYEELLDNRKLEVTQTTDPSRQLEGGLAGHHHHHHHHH

[3] = target: T3, human SEZ6L ECD-His (human, UniProt Q9BYH1 29-955); assay: ELISA on plates coated with SEZ6L protein
T3 construct: whole entry named
T3 sequence: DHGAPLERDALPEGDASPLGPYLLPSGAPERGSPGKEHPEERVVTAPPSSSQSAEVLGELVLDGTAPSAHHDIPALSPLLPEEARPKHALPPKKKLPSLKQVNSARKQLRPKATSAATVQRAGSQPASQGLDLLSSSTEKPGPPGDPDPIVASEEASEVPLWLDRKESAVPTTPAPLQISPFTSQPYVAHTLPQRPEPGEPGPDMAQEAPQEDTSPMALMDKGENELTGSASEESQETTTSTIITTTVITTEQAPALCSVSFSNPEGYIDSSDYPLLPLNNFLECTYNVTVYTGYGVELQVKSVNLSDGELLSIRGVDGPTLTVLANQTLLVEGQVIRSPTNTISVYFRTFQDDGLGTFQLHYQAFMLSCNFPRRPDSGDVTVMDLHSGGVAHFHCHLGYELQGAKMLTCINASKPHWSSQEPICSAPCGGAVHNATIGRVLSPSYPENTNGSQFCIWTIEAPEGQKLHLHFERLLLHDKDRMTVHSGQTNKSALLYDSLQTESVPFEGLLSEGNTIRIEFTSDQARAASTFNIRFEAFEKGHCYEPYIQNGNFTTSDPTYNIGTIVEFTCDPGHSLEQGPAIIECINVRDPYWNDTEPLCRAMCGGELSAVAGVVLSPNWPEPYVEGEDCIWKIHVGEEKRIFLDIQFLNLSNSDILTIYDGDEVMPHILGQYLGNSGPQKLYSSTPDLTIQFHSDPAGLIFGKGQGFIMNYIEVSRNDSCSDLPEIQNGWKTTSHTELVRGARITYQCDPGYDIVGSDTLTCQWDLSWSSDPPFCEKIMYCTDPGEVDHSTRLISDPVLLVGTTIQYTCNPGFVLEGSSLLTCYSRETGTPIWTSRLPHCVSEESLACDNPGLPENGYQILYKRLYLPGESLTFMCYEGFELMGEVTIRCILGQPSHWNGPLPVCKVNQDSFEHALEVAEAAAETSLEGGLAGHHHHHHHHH
Method: To determine cross reactivity to family member proteins, SEZ6L and SEZ6L2, an ELISA-based assay was used. Plates were coated with SEZ6, SEZ6L, or SEZ6L2 proteins at 0.2 μg/mL in PBS overnight. After washing with PBS containing 0.05% (v/v) Tween 20 (PB ST), the wells were blocked with 2% (w/v) BSA in PBS (PB SA), 100 μL/well for 1 hour at room temperature. Antibody was then added at 1 μg/mL in 100 μL PBSA for 1 hour at room temperature. After washing with PBST, 100 μL/well HRP-labeled goat anti-mouse IgG diluted 1:2,000 in PBSA for 1 hour at room temperature. […] After developing, an equal volume of 2M H₂SO₄ was added to stop substrate development and analyzed by spectrophotometer at OD 450.

[4] = target: T4, hSEZ6-ECD-His (human, UniProt Q53EL9 20-925); assay: bio-layer interferometry (ForteBio RED) or surface plasmon resonance (Biacore 2000) on human SEZ6-His; the table does not say which; column Hu Affinity (Kd, nM)
T4 construct: the whole entry is named; also called recombinant SEZ6-His; human recombinant SEZ6-His
From the text: as §1

[5] = target: T5, rat SEZ6 on RIN-m5F cells (rat, UniProt Q7TSK2 20-991 (mouse entry)); assay: flow cytometry, RIN-m5F cells, 5 ug/mL antibody
T5 construct: endogenous on RIN-m5F cells; also called rSEZ6
T5 chain: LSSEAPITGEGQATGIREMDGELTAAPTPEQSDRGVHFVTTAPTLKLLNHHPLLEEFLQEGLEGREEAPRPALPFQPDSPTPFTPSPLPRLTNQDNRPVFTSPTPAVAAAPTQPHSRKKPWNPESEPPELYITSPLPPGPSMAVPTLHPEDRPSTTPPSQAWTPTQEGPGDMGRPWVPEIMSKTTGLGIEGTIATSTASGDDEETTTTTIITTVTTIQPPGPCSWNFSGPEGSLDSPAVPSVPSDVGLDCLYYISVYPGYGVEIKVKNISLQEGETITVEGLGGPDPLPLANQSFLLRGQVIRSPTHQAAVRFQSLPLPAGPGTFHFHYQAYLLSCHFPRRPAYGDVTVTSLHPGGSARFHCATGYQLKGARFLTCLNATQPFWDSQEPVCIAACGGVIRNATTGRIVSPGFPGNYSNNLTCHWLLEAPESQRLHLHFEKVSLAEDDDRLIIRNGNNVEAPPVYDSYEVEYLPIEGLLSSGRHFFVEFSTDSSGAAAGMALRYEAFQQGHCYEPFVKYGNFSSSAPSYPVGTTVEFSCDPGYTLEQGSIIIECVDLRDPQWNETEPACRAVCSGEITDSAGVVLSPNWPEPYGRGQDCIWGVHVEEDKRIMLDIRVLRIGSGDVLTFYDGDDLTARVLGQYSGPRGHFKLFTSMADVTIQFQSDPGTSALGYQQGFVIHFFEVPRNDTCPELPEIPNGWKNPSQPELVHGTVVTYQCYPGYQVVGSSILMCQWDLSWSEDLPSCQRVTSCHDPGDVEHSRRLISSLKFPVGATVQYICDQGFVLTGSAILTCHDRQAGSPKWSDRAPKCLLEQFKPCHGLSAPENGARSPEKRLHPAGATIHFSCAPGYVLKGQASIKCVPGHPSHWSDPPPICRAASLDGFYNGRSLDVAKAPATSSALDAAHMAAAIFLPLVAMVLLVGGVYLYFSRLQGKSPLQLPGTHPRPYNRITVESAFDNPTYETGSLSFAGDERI
Method: (§2) Briefly 1×10⁵ cells per well of Neuro2a, RIN-5mF, or yeast displaying cynomolgus SEZ6 cells were incubated for 30 minutes with 50 μL PBS (2% FCS) buffer with 5 μg/mL antibody. […] After incubating for 15 minutes cells were washed twice with the PBS buffer and re-suspended in the same with DAPI for flow cytometry analysis of Neuro2a and Rin-m5F or buffer without DAPI for flow cytometric analysis of yeast cells with cSEZ6.

[6] = target: T6, mouse SEZ6 on Neuro2a cells (mouse, UniProt Q7TSK2 20-991); assay: flow cytometry, Neuro2a cells, 5 ug/mL antibody
T6 construct: endogenous on Neuro2a cells; also called murine SEZ6; mSEZ6
Method: as §2

[7] = target: T7, SEZ6 N3 (aa 170-335) on yeast (human, UniProt Q53EL9 189-354); assay: yeast display, flow cytometry;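 also: antibody binding to individual SEZ6 domains displayed on yeast, measured by flow cytometry, antibody at 50 nM purified or hybridoma supernatant diluted 1:2, 90 min on ice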
T7 construct: yeast display
T7 sequence: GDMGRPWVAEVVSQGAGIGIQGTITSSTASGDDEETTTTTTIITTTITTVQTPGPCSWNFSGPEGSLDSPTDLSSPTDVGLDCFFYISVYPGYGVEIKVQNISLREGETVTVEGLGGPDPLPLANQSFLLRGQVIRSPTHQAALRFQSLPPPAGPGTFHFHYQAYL
Method: Individual domains of SEZ6 were expressed on the surface of yeast and binding by each SEZ6 antibody was determined through flow cytometry.
To test for binding to a particular construct, 200,000 induced yeast cells expressing the desired construct were washed twice in PBS+1 mg/mL BSA (PBSA), and incubated in 50 of PBSA with chicken anti c-myc (Life Technologies) at 0.1 μg/mL and either 50 nM purified antibody or 1:2 dilution of unpurified supernatant from hybridomas cultured for 7 days. Cells were incubated for 90 minutes on ice and then washed twice in PBSA. […] After twenty minutes' incubation on ice, cells were washed twice with PBSA and analyzed on a FACS Canto II.

B1: SC17.6 (antibody, V domains shown)
VH: EVQLQQSGPELMKPGASVKMSCKASGYTFTDYNMYWVKQNQGKSLEWIGEINPNNGGTAYNQKFRGKATLTVDKSSSTAYMELRSLTSEDSAVYYCARYDKGFDYWGQGTTLTVSS
VL: DIQMTQSPASLSVSVGETVTITCRASANINSNLVWYQQKQGKSPQLLVYAATNLADGVPSRFSGSGSGTQYSLKINSLQSEDFGNYYCQHFWGTPRTFGGGTKLEIK
notes: murine mAb; also called SC17.16 (duplicate)
Kd [1]: < 1 nM | binding result [2]: binds | binding result [3]: no binding (tested: 1 µg/mL) | Kd [4]: < 1 nM | binding result [5]: binds | binding result [6]: binds

B2: SC17.161 (antibody, V domains shown)
VH: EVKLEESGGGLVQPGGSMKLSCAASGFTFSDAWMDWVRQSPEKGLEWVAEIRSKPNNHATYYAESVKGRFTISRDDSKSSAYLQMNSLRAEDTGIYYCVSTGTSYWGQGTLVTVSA
VL: DIVMSQSPSSLAVSVGEKVTMNCESSQSLLYNSNQKNYLAWYQQKPGQSPKLLIYWASTRDSGVPDRFTGSGSGTDFTLTISSVRADDPAVYYCQQYFNYPLTFGAGTKLELK
notes: murine mAb
binding result [7]: binds

Other lines, results leading:

binding result [7]: binds
B3: SC17.91 (antibody, V domains shown)
VH: EVQLVESGGGLVKPGGSRKLSCAASGFTFSDYGMHWVRQAPEKGLEWVAYISRGSSTIHYADTVKGRFTISRDNAKNTLFLQMTSLRSEDTAMYYCARPFNWYFDVWGAGTTVTVSS
VL: DVVMTQTPLSLPVSLGDQASISCRSSQSLVHSNGNTYLLWYLQKPGQSPKLLIYKVSNRFSGVPDRFSGSGSGTDFALKISRVEAEDLGVYFCSQSTHVPWTFGGGTKLEIK
notes: murine mAb

binding result [7]: binds
B4: SC17.85 (antibody, V domains shown)
VH: EVQLVESGGDLVKPGGSLKLSCAASGFTFSNYGMSWVRQTPDKRLEWVATISTGGTYTYYPDSVKGRFTISRDNAKNTLYLQMSSLKSEDTAMYYCVGQSYSDYVSFAYWGQGTQVTVSA
VL: DIVMTQAAFSNPVTLGTSASISCRSSKSLLHSNGITYLYWYLQKPGQSPQLLIYQMSNLASGVPERFSSSGSGSDFTLRISRVEAEDVGVYYCAQNLEHPTFGGGTKLEIK
notes: murine mAb
